± gives the uncertainty stated by the source.
Test: protein stability index of a GFP-peptide fusion (yeast GPS) (PSI 1-4); higher = more stable; sorted into four equal gates, so the index is relative within each strain
How it was run: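 The protein stability index combines read frequencies across sorting gates, each weighted by its gate number and then summed. To obtain those frequencies, a pooled yeast library of GFP fusions to tiled 17-residue yeast protein peptides, on a plasmid also expressing Cherry, was grown to mid-log phase in leucine-free medium. The cells were sorted into four equal gates by GFP/Cherry ratio before plasmid amplification by PCR and Illumina sequencing.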

Question: With ARRRQPTDQNNQSNLNG [SNF2] as the sequence, how does the protein stability index (doa10∆) read?
Answer: 2.88 ± 0.12

Question: And the protein stability index (pdr5∆)?
Answer: 3.25 ± 0.19

Question: What about the protein stability index (san1∆) of the same sequence?
Answer: 3.11 ± 0.07

Question: And the protein stability index (ubr1∆)?
Answer: 3.24 ± 0.16

Question: Which results are given for ADNVDKILEQFEYVLYP [FAS2]?
Answer: protein stability index (doa10∆): 2.05 ± 0.067; protein stability index (pdr5∆): 1.94 ± 0.089; protein stability index (san1∆): 2.17 ± 0.094; protein stability index (ubr1∆): 2.57 ± 0.08

Question: Which protein stability index (doa10∆) does the source give for ANNNMNDELVELLANKC [GRR1] here?
Answer: 2.79 ± 0.061

Question: And the protein stability index (pdr5∆)?
Answer: 2.92 ± 0.044

Question: What about the protein stability index (san1∆) of the same sequence?
Answer: 2.78 ± 0.059

Question: What about the protein stability index (ubr1∆) of the same sequence?
Answer: 2.99 ± 0.046

Question: For SLTRDFEQCCKEKKELQ [YIL149C/MLP2], which protein stability index (doa10∆) is on record?
Answer: 2.87 ± 0.089

Question: And the protein stability index (pdr5∆)?
Answer: 3.01 ± 0.089

Question: And the protein stability index (san1∆)?
Answer: 3 ± 0.1

Question: And the protein stability index (ubr1∆)?
Answer: 3.14 ± 0.11

Question: For CYPQFAERDSQGGFYKQ [UBP6], which protein stability index (doa10∆) is on record?
Answer: 3.31 ± 0.065

Question: And the protein stability index (pdr5∆)?
Answer: 3.28 ± 0.064

Question: And the protein stability index (san1∆)?
Answer: 3.12 ± 0.058

Question: And the protein stability index (ubr1∆)?
Answer: 3.21 ± 0.044

Question: Which protein stability index (doa10∆) does the source give for KLLGVDMQSSVDTGLQP [YLR018C/POM34] here?
Answer: 3.17 ± 0.077

Question: And the protein stability index (pdr5∆)?
Answer: 3.12 ± 0.067

Question: And the protein stability index (san1∆)?
Answer: 3.1 ± 0.062

Question: What about the protein stability index (ubr1∆) of the same sequence?
Answer: 3.14 ± 0.053

Question: With ARNLIEDEDDGESEKSS [RPC53] as the sequence, how does the protein stability index (doa10∆) read?
Answer: 3.06 ± 0.12

Question: What about the protein stability index (pdr5∆) of the same sequence?
Answer: 3.68 ± 0.18

Question: What about the protein stability index (ubr1∆) of the same sequence?
Answer: 3.29 ± 0.11

Question: For YMDKAKQYDNRITKSNE [LRP1], which protein stability index (doa10∆) is on record?
Answer: 3.08 ± 0.063

Question: What about the protein stability index (pdr5∆) of the same sequence?
Answer: 2.91 ± 0.056

Question: And the protein stability index (san1∆)?
Answer: 2.97 ± 0.057

Question: What about the protein stability index (ubr1∆) of the same sequence?
Answer: 2.94 ± 0.074

Question: Which protein stability index (doa10∆) does the source give for RRLDALVEKVYARFKND [ITC1] here?
Answer: 3.29 ± 0.16

Question: And the protein stability index (pdr5∆)?
Answer: 1.93 ± 0.083

Question: What about the protein stability index (san1∆) of the same sequence?
Answer: 2.69 ± 0.078

Question: What about the protein stability index (ubr1∆) of the same sequence?
Answer: 2.29 ± 0.097

Question: Which protein stability index (doa10∆) does the source give for LVIGIFKRDLLREKEDK [YJL039C/NUP192] here?
Answer: 2.95 ± 0.098

Question: What about the protein stability index (pdr5∆) of the same sequence?
Answer: 2.28 ± 0.11

Question: What about the protein stability index (san1∆) of the same sequence?
Answer: 2.86 ± 0.069

Question: What about the protein stability index (ubr1∆) of the same sequence?
Answer: 2.34 ± 0.1

Question: Which results are given for LTVAMYINSDSVNPAML [RPO31]?
Answer: protein stability index (doa10∆): 2.4 ± 0.11; protein stability index (pdr5∆): 2.47 ± 0.11; protein stability index (san1∆): 2.69 ± 0.14; protein stability index (ubr1∆): 2.68 ± 0.082

Question: Which protein stability index (doa10∆) does the source give for STSNTPSPPNVIITDGT [YDL088C/ASM4] here?
Answer: 2.79 ± 0.031

Question: What about the protein stability index (pdr5∆) of the same sequence?
Answer: 2.95 ± 0.031

Question: What about the protein stability index (san1∆) of the same sequence?
Answer: 2.9 ± 0.035

Question: And the protein stability index (ubr1∆)?
Answer: 2.956 ± 0.029

Question: With KDEYLAQLDGRIGVLQA [NSL1] as the sequence, how does the protein stability index (doa10∆) read?
Answer: 2.08 ± 0.064

Question: And the protein stability index (pdr5∆)?
Answer: 2.4 ± 0.046

Question: What about the protein stability index (san1∆) of the same sequence?
Answer: 2.41 ± 0.074

Question: And the protein stability index (ubr1∆)?
Answer: 2.99 ± 0.046

Question: Which results are given for GNLIGVDPFDSDEEESV [SNU114]?
Answer: protein stability index (doa10∆): 3.03 ± 0.075; protein stability index (pdr5∆): 3.14 ± 0.059; protein stability index (san1∆): 3 ± 0.057; protein stability index (ubr1∆): 3.2 ± 0.054

Question: What does the source list for SRQVQKRPRSRTLTAVH [RPS7A]?
Answer: protein stability index (doa10∆): 2.54 ± 0.035; protein stability index (pdr5∆): 2.33 ± 0.034; protein stability index (san1∆): 2.41 ± 0.037; protein stability index (ubr1∆): 2.03 ± 0.032

Question: Which results are given for QKLPQYIIQGSNTNDNI [RGR1]?
Answer: protein stability index (doa10∆): 3.14 ± 0.1; protein stability index (pdr5∆): 3.09 ± 0.098; protein stability index (san1∆): 2.48 ± 0.18; protein stability index (ubr1∆): 3.25 ± 0.091

Question: What does the source list for DSAAIIAATGLNQINGL [GRR1]?
Answer: protein stability index (doa10∆): 2.85 ± 0.096; protein stability index (pdr5∆): 2.83 ± 0.089; protein stability index (san1∆): 2.79 ± 0.083; protein stability index (ubr1∆): 2.96 ± 0.073

Question: For PNFEASFVHGVVGQLFQ [SMC2], which protein stability index (doa10∆) is on record?
Answer: 1.61 ± 0.098

Question: And the protein stability index (pdr5∆)?
Answer: 2.56 ± 0.11

Question: And the protein stability index (san1∆)?
Answer: 2.58 ± 0.1

Question: What about the protein stability index (ubr1∆) of the same sequence?
Answer: 3.18 ± 0.12

Question: Which protein stability index (doa10∆) does the source give for ALDTNGTSATTETLTSK [SIR4] here?
Answer: 2.22 ± 0.076

Question: What about the protein stability index (pdr5∆) of the same sequence?
Answer: 2.19 ± 0.066

Question: What about the protein stability index (san1∆) of the same sequence?
Answer: 2.9 ± 0.065

Question: What about the protein stability index (ubr1∆) of the same sequence?
Answer: 1.93 ± 0.045

Question: What does the source list for MSRPQVTVHSLTGEATA [RPL4A]?
Answer: protein stability index (doa10∆): 1.59 ± 0.09; protein stability index (pdr5∆): 2.28 ± 0.07; protein stability index (san1∆): 1.88 ± 0.059; protein stability index (ubr1∆): 2.07 ± 0.082

Question: Which protein stability index (doa10∆) does the source give for LHANGASFFFMVMFMHM [COB] here?
Answer: 1.75 ± 0.037

Question: And the protein stability index (pdr5∆)?
Answer: 1.36 ± 0.028

Question: And the protein stability index (san1∆)?
Answer: 1.37 ± 0.065

Question: And the protein stability index (ubr1∆)?
Answer: 1.38 ± 0.036

Question: With IFCIDLEVFHHFFKWIE [SRB8] as the sequence, how does the protein stability index (doa10∆) read?
Answer: 1.25 ± 0.092

Question: And the protein stability index (pdr5∆)?
Answer: 1.64 ± 0.16

Question: What about the protein stability index (san1∆) of the same sequence?
Answer: 1.38 ± 0.14

Question: Which protein stability index (pdr5∆) does the source give for LDNFQKSVEKTMIKKTT [SMC3] here?
Answer: 3.29 ± 0.19

Question: What about the protein stability index (san1∆) of the same sequence?
Answer: 2.89 ± 0.069

Question: What about the protein stability index (ubr1∆) of the same sequence?
Answer: 3.17 ± 0.075

Question: What does the source list for KRKPAKSSSNRSCVSNS [RPN4]?
Answer: protein stability index (doa10∆): 2.89 ± 0.059; protein stability index (pdr5∆): 3.01 ± 0.077; protein stability index (san1∆): 3.08 ± 0.065; protein stability index (ubr1∆): 2.98 ± 0.048

Question: Which results are given for NPIIENNVDNKYKSGGK [SSN2]?
Answer: protein stability index (doa10∆): 2.92 ± 0.052; protein stability index (pdr5∆): 3.01 ± 0.041; protein stability index (san1∆): 3.04 ± 0.043; protein stability index (ubr1∆): 3.07 ± 0.041

Question: For KKYLKKNQLRDWIRFVS [RPL22A], which protein stability index (doa10∆) is on record?
Answer: 1.8 ± 0.06

Question: And the protein stability index (pdr5∆)?
Answer: 1.68 ± 0.062

Question: What about the protein stability index (san1∆) of the same sequence?
Answer: 1.2 ± 0.14

Question: And the protein stability index (ubr1∆)?
Answer: 1.12 ± 0.09

Question: With FNFFEPIKEAKIKHGSV [YMR129W/POM152] as the sequence, how does the protein stability index (doa10∆) read?
Answer: 2.7 ± 0.054

Question: And the protein stability index (pdr5∆)?
Answer: 2.89 ± 0.056

Question: And the protein stability index (san1∆)?
Answer: 2.54 ± 0.065

Question: And the protein stability index (ubr1∆)?
Answer: 2.83 ± 0.046

Source: the supplement of paper PMC9732359
